IntAct's records for PubMed 29997244

B1: DnaJ homolog subfamily C member 5 (Homo sapiens), Q9H3Z4 (parent)
chain: MADQRQRSLSTSGESLYHVLGLDKNATSDDIKKSYRKLALKYHPDKNPDNPEAADKFKEINNAHAILTDATKRNIYDKYGSLGLYVAEQFGEENVNTYFVLSSWWAKALFVFCGLLTCCYCCCCLCCCFNCCCGKCKPKAPEGEETEFYVSPEDLEAQLQSDEREATDTPIVIQPASATETTQLTADSHPSYHTDGFN

Variants of: B1
Conditions: with zdh17_human ZDHHC17, Q8IUH5
Chain of zdh17_human ZDHHC17, Q8IUH5 (Q8IUH5 whole entry): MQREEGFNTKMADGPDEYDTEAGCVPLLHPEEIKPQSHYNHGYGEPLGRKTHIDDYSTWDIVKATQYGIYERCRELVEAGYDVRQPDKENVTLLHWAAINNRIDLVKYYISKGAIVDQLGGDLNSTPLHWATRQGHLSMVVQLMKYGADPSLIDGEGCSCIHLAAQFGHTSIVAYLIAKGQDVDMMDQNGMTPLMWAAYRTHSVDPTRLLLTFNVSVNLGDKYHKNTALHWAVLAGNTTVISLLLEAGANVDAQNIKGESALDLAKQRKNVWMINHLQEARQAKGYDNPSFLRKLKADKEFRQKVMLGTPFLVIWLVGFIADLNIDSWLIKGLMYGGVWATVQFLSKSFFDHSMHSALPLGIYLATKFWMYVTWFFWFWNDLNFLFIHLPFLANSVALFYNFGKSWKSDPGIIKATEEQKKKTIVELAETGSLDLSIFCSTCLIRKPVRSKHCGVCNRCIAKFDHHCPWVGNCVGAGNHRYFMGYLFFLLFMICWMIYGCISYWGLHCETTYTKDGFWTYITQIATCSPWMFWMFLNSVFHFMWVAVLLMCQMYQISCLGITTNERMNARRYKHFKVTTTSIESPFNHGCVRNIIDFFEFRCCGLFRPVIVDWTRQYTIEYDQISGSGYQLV

Row | Variant | effect of a mutation on the interaction
1 | MADQRQRSLSTSGESLYHVLGLDKNATSDDIKKSYRKLALKYHPDKNPDNPEAADKFKEINNAHAILTDATKRNIYDKYGSLGLYVAEQFGEENVNTYFVLSSWWAKALFVFCGRLTCCYCCCCLCCCFNCCCGKCKPKAPEGEETEFYVSPEDLEAQLQSDEREATDTPIVIQPASATETTQLTADSHPSYHTDGFN [L115R] | increasing interaction strength

Variants of: B1
Conditions: with ap2b1_human AP2B1, P63010
Chain of ap2b1_human AP2B1, P63010 (P63010 whole entry): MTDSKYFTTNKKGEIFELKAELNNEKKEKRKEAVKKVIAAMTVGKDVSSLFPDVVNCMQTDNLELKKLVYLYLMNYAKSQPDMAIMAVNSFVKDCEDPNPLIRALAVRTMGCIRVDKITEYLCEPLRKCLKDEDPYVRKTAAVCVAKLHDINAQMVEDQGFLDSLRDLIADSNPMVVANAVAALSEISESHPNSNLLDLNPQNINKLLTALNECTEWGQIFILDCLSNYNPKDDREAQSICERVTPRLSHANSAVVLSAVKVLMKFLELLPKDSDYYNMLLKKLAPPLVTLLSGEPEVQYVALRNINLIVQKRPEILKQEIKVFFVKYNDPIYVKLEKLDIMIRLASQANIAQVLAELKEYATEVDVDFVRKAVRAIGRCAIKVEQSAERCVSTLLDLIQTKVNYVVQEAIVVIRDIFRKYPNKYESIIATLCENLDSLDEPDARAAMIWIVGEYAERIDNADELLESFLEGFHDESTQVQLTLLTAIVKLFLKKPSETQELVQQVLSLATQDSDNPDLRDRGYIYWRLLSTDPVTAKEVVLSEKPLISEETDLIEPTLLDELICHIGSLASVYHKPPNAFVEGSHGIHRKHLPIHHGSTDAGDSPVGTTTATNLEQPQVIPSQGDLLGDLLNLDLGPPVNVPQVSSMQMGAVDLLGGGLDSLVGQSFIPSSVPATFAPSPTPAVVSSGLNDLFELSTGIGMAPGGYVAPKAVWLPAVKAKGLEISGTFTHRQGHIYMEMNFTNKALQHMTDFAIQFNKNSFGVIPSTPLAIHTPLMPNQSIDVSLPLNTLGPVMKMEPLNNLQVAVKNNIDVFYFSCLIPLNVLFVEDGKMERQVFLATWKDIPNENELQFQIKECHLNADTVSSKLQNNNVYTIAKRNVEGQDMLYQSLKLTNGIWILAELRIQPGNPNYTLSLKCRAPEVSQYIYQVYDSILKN

Row | Variant | effect of a mutation on the interaction
2 | MADQRQRSLSTSGESLYHVLGLDKNATSDDIKKSYRKLALKYHPDKNPDNPEAADKFKEINNAHAILTDATKRNIYDKYGSLGLYVAEQFGEENVNTYFVLSSWWAKALFVFCGRLTCCYCCCCLCCCFNCCCGKCKPKAPEGEETEFYVSPEDLEAQLQSDEREATDTPIVIQPASATETTQLTADSHPSYHTDGFN [L115R] | with no effect

Variants of: B1
Conditions: with caps1_human CADPS

Row | Variant | effect of a mutation on the interaction
3 | MADQRQRSLSTSGESLYHVLGLDKNATSDDIKKSYRKLALKYHPDKNPDNPEAADKFKEINNAHAILTDATKRNIYDKYGSLGLYVAEQFGEENVNTYFVLSSWWAKALFVFCGRLTCCYCCCCLCCCFNCCCGKCKPKAPEGEETEFYVSPEDLEAQLQSDEREATDTPIVIQPASATETTQLTADSHPSYHTDGFN [L115R] | with no effect

Variants of: B1
Conditions: with cskp_human CASK

Row | Variant | effect of a mutation on the interaction
4 | MADQRQRSLSTSGESLYHVLGLDKNATSDDIKKSYRKLALKYHPDKNPDNPEAADKFKEINNAHAILTDATKRNIYDKYGSLGLYVAEQFGEENVNTYFVLSSWWAKALFVFCGRLTCCYCCCCLCCCFNCCCGKCKPKAPEGEETEFYVSPEDLEAQLQSDEREATDTPIVIQPASATETTQLTADSHPSYHTDGFN [L115R] | increasing interaction strength

Variants of: B1
Conditions: with lipa1_human PPFIA1, Q13136
Chain of lipa1_human PPFIA1, Q13136 (Q13136 whole entry): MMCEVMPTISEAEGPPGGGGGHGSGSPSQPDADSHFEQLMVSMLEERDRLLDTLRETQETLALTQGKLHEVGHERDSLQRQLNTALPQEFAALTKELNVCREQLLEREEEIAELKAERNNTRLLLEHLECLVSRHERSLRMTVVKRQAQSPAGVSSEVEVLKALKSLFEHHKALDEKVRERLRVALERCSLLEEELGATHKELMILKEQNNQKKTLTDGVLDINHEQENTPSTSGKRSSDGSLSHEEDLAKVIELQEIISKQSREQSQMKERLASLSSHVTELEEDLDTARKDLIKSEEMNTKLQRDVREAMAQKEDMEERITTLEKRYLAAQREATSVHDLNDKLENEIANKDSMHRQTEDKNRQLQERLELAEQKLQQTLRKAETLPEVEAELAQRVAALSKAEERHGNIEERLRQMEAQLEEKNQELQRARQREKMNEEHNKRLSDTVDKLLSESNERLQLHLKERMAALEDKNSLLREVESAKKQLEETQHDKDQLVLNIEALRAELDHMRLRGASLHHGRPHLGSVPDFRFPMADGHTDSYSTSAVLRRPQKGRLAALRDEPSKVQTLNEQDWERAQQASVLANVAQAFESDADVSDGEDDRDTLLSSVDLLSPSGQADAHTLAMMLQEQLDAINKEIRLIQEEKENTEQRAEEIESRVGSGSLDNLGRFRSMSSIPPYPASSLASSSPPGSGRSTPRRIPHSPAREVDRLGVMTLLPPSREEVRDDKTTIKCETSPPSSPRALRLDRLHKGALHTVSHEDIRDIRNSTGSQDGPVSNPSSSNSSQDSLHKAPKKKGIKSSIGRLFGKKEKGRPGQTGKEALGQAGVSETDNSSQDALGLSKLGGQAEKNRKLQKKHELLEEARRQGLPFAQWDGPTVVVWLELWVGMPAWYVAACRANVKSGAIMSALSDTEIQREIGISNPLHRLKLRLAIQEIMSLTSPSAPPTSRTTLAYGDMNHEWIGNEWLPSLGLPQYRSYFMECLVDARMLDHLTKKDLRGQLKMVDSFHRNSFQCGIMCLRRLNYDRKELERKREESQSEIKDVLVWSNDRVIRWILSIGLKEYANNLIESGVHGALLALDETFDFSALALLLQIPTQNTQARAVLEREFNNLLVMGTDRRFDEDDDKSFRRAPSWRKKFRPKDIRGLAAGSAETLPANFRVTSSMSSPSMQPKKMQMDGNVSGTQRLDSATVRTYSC

Row | Variant | effect of a mutation on the interaction
5 | MADQRQRSLSTSGESLYHVLGLDKNATSDDIKKSYRKLALKYHPDKNPDNPEAADKFKEINNAHAILTDATKRNIYDKYGSLGLYVAEQFGEENVNTYFVLSSWWAKALFVFCGRLTCCYCCCCLCCCFNCCCGKCKPKAPEGEETEFYVSPEDLEAQLQSDEREATDTPIVIQPASATETTQLTADSHPSYHTDGFN [L115R] | with no effect

Variants of: B1
Conditions: with lipa4_human PPFIA4, O75335

Row | Variant | effect of a mutation on the interaction
6 | MADQRQRSLSTSGESLYHVLGLDKNATSDDIKKSYRKLALKYHPDKNPDNPEAADKFKEINNAHAILTDATKRNIYDKYGSLGLYVAEQFGEENVNTYFVLSSWWAKALFVFCGRLTCCYCCCCLCCCFNCCCGKCKPKAPEGEETEFYVSPEDLEAQLQSDEREATDTPIVIQPASATETTQLTADSHPSYHTDGFN [L115R] | increasing interaction strength

Variants of: B1
Conditions: with rabx5_human RABGEF1, Q9UJ41

Row | Variant | effect of a mutation on the interaction
7 | MADQRQRSLSTSGESLYHVLGLDKNATSDDIKKSYRKLALKYHPDKNPDNPEAADKFKEINNAHAILTDATKRNIYDKYGSLGLYVAEQFGEENVNTYFVLSSWWAKALFVFCGRLTCCYCCCCLCCCFNCCCGKCKPKAPEGEETEFYVSPEDLEAQLQSDEREATDTPIVIQPASATETTQLTADSHPSYHTDGFN [L115R] | decreasing interaction strength

Variants of: B1
Conditions: with sh3g3_human SH3GL3, Q99963
Chain of sh3g3_human SH3GL3, Q99963 (Q99963 whole entry): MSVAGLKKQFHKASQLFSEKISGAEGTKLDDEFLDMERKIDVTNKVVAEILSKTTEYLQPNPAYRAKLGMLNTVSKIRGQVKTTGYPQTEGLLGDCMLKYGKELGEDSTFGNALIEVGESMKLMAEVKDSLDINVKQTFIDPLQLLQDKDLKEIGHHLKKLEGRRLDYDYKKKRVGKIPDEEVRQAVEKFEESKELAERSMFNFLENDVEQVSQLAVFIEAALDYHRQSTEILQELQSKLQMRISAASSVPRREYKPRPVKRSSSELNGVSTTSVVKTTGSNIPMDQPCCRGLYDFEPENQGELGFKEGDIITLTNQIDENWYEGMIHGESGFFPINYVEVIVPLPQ

Row | Variant | effect of a mutation on the interaction
8 | MADQRQRSLSTSGESLYHVLGLDKNATSDDIKKSYRKLALKYHPDKNPDNPEAADKFKEINNAHAILTDATKRNIYDKYGSLGLYVAEQFGEENVNTYFVLSSWWAKALFVFCGRLTCCYCCCCLCCCFNCCCGKCKPKAPEGEETEFYVSPEDLEAQLQSDEREATDTPIVIQPASATETTQLTADSHPSYHTDGFN [L115R] | with no effect

Variants of: B1
Conditions: with snp29_human SNAP29, O95721
Chain of snp29_human SNAP29, O95721 (O95721 whole entry): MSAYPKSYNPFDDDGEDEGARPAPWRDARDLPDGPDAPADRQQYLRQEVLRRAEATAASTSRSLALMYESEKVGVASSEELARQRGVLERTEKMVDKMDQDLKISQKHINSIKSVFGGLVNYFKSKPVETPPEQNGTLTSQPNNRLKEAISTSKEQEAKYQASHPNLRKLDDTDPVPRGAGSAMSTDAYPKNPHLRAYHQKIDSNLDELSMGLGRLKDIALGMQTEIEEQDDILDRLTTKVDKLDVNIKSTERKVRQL

Row | Variant | effect of a mutation on the interaction
9 | MADQRQRSLSTSGESLYHVLGLDKNATSDDIKKSYRKLALKYHPDKNPDNPEAADKFKEINNAHAILTDATKRNIYDKYGSLGLYVAEQFGEENVNTYFVLSSWWAKALFVFCGRLTCCYCCCCLCCCFNCCCGKCKPKAPEGEETEFYVSPEDLEAQLQSDEREATDTPIVIQPASATETTQLTADSHPSYHTDGFN [L115R] | with no effect

Variants of: B1
Conditions: with syua_human SNCA

Row | Variant | effect of a mutation on the interaction
10 | MADQRQRSLSTSGESLYHVLGLDKNATSDDIKKSYRKLALKYHPDKNPDNPEAADKFKEINNAHAILTDATKRNIYDKYGSLGLYVAEQFGEENVNTYFVLSSWWAKALFVFCGRLTCCYCCCCLCCCFNCCCGKCKPKAPEGEETEFYVSPEDLEAQLQSDEREATDTPIVIQPASATETTQLTADSHPSYHTDGFN [L115R] | with no effect

Variants of: B1
Conditions: with zdh17_human ZDHHC17, Q8IUH5
Remark: another data set of the same source

Row | Variant | effect of a mutation on the interaction
11 | MADQRQRSLSTSGESLYHVLGLDKNATSDDIKKSYRKLALKYHPDKNPDNPEAADKFKEINNAHAILTDATKRNIYDKYGSLGLYVAEQFGEENVNTYFVLSSWWAKALFVFCGRLTCCYCCCCLCCCFNCCCGKCKPKAPEGEETEFYVSPEDLEAQLQSDEREATDTPIVIQPASATETTQLTADSHPSYHTDGFN [L115R] | decreasing interaction strength

Variants of: B1
Conditions: with grm8_human GRM8, O00222

Row | Variant | effect of a mutation on the interaction
12 | MADQRQRSLSTSGESLYHVLGLDKNATSDDIKKSYRKLALKYHPDKNPDNPEAADKFKEINNAHAILTDATKRNIYDKYGSLGLYVAEQFGEENVNTYFVLSSWWAKALFVFCGRLTCCYCCCCLCCCFNCCCGKCKPKAPEGEETEFYVSPEDLEAQLQSDEREATDTPIVIQPASATETTQLTADSHPSYHTDGFN [L115R] | decreasing interaction strength

Variants of: B1
Conditions: with nrx3b_human NRXN3, Q9HDB5
Chain of nrx3b_human NRXN3, Q9HDB5 (Q9HDB5 whole entry): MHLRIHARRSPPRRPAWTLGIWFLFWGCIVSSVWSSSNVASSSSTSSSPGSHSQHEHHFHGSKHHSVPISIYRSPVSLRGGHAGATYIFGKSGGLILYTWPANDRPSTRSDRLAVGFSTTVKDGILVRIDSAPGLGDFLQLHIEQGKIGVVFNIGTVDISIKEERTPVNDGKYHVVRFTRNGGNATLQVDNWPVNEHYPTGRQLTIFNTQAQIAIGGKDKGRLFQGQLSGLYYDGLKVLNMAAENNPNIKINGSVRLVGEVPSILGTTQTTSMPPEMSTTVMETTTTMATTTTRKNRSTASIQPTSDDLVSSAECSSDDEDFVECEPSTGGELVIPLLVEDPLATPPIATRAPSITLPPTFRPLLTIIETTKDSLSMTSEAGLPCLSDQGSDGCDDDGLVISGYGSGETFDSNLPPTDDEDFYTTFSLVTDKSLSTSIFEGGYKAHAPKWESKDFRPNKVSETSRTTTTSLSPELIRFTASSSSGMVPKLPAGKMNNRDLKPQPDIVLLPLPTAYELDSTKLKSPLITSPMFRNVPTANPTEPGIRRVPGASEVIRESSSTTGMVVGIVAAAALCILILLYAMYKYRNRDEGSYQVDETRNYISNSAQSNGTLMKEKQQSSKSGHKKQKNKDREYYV

Row | Variant | effect of a mutation on the interaction
13 | MADQRQRSLSTSGESLYHVLGLDKNATSDDIKKSYRKLALKYHPDKNPDNPEAADKFKEINNAHAILTDATKRNIYDKYGSLGLYVAEQFGEENVNTYFVLSSWWAKALFVFCGRLTCCYCCCCLCCCFNCCCGKCKPKAPEGEETEFYVSPEDLEAQLQSDEREATDTPIVIQPASATETTQLTADSHPSYHTDGFN [L115R] | decreasing interaction strength

Variants of: B1
Conditions: with syph_human SYP

Row | Variant | effect of a mutation on the interaction
14 | MADQRQRSLSTSGESLYHVLGLDKNATSDDIKKSYRKLALKYHPDKNPDNPEAADKFKEINNAHAILTDATKRNIYDKYGSLGLYVAEQFGEENVNTYFVLSSWWAKALFVFCGRLTCCYCCCCLCCCFNCCCGKCKPKAPEGEETEFYVSPEDLEAQLQSDEREATDTPIVIQPASATETTQLTADSHPSYHTDGFN [L115R] | decreasing interaction strength

Variants of: B1
Conditions: with syt1_human SYT1, P21579
Chain of syt1_human SYT1, P21579 (P21579 whole entry): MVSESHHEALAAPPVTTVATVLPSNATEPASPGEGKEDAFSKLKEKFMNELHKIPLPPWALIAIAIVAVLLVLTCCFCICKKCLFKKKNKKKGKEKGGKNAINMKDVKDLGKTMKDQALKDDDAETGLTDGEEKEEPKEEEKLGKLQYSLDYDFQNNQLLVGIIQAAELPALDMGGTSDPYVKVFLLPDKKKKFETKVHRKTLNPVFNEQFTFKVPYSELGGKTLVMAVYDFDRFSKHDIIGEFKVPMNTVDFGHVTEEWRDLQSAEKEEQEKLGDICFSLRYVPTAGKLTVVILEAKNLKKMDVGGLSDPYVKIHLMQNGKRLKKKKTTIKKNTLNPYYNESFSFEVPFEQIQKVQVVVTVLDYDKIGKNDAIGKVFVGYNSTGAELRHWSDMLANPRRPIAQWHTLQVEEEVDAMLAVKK

Row | Variant | effect of a mutation on the interaction
15 | MADQRQRSLSTSGESLYHVLGLDKNATSDDIKKSYRKLALKYHPDKNPDNPEAADKFKEINNAHAILTDATKRNIYDKYGSLGLYVAEQFGEENVNTYFVLSSWWAKALFVFCGRLTCCYCCCCLCCCFNCCCGKCKPKAPEGEETEFYVSPEDLEAQLQSDEREATDTPIVIQPASATETTQLTADSHPSYHTDGFN [L115R] | decreasing interaction strength

Variants of: B1
Conditions: with vamp2_human VAMP2, P63027
Chain of vamp2_human VAMP2, P63027 (P63027 whole entry): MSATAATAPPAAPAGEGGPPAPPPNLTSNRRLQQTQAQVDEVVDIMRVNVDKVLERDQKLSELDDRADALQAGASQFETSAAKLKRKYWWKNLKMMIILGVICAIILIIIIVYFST

Row | Variant | effect of a mutation on the interaction
16 | MADQRQRSLSTSGESLYHVLGLDKNATSDDIKKSYRKLALKYHPDKNPDNPEAADKFKEINNAHAILTDATKRNIYDKYGSLGLYVAEQFGEENVNTYFVLSSWWAKALFVFCGRLTCCYCCCCLCCCFNCCCGKCKPKAPEGEETEFYVSPEDLEAQLQSDEREATDTPIVIQPASATETTQLTADSHPSYHTDGFN [L115R] | decreasing interaction strength

Variants of: B1
Conditions: with vamp3_human VAMP3, Q15836
Chain of vamp3_human VAMP3, Q15836 (Q15836 whole entry): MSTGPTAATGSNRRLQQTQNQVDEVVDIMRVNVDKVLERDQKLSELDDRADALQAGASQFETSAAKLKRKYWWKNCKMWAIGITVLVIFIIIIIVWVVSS

Row | Variant | effect of a mutation on the interaction
17 | MADQRQRSLSTSGESLYHVLGLDKNATSDDIKKSYRKLALKYHPDKNPDNPEAADKFKEINNAHAILTDATKRNIYDKYGSLGLYVAEQFGEENVNTYFVLSSWWAKALFVFCGRLTCCYCCCCLCCCFNCCCGKCKPKAPEGEETEFYVSPEDLEAQLQSDEREATDTPIVIQPASATETTQLTADSHPSYHTDGFN [L115R] | decreasing interaction strength

Variants of: B1
Conditions: with ap2a1_human AP2A1, O95782

Row | Variant | effect of a mutation on the interaction
18 | MADQRQRSLSTSGESLYHVLGLDKNATSDDIKKSYRKLALKYHPDKNPDNPEAADKFKEINNAHAILTDATKRNIYDKYGSLGLYVAEQFGEENVNTYFVLSSWWAKALFVFCGRLTCCYCCCCLCCCFNCCCGKCKPKAPEGEETEFYVSPEDLEAQLQSDEREATDTPIVIQPASATETTQLTADSHPSYHTDGFN [L115R] | with no effect

Variants of: B1
Conditions: with ap2s1_human AP2S1, P53680
Chain of ap2s1_human AP2S1, P53680 (P53680 whole entry): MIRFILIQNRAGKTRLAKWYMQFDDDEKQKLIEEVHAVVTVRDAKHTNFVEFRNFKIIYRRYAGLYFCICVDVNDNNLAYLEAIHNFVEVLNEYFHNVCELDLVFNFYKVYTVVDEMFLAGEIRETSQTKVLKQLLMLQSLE

Row | Variant | effect of a mutation on the interaction
19 | MADQRQRSLSTSGESLYHVLGLDKNATSDDIKKSYRKLALKYHPDKNPDNPEAADKFKEINNAHAILTDATKRNIYDKYGSLGLYVAEQFGEENVNTYFVLSSWWAKALFVFCGRLTCCYCCCCLCCCFNCCCGKCKPKAPEGEETEFYVSPEDLEAQLQSDEREATDTPIVIQPASATETTQLTADSHPSYHTDGFN [L115R] | with no effect
